Measured values: PMC7138024 (Journal of natural products, 2014)

Target: cruzain (Trypanosoma cruzi, UniProt P25779)
Type: biochemical
Settings: read-out: IC50 (μM) cruzain; triplicate; phosphate buffer pH 6.3, 37 °C

cruzain, sequence (P25779 123-467): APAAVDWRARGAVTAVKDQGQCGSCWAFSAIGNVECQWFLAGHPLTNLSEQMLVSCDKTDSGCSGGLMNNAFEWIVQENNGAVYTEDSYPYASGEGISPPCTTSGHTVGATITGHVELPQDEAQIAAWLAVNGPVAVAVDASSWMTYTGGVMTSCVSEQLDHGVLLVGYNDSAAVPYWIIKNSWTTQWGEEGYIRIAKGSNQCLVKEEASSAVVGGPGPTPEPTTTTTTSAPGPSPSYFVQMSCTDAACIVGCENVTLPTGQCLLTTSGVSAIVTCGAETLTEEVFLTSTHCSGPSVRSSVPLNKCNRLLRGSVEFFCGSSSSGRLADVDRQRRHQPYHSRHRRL

B1: cystatin (protein)
chain: SEDRSRLLGAPVPVDENDEGLQRALQFAMAEYNRASNDKYSSRVVRVISAKRQLVSGIKYILQVEIGRTTCPKSSGDLQSCEFHDEPEMAKYTTCTFVVYSIPWLNQIKLLESKCQ
modifications: two disulfides; Limits are the mature chain
- IC50: 0.0085 ± 0.025 µM
